T1: human TL1A extracellular domain with N-terminal HIS and FLAG tag (human, UniProt O95150 72-251)
T1 construct: the whole entry is named; also called TNFSF15
T1 sequence: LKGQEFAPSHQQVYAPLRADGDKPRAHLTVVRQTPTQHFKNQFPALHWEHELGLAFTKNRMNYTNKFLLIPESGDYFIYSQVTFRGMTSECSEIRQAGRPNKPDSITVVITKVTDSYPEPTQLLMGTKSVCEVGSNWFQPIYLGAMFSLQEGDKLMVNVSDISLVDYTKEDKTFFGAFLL

B1: 320-549 (antibody, human IgG1, name in Kabat numbering, V domains shown)
VH: QVQLVQSGAEVKKPGASVKVSCKASGYTFTSYDINWVRQAPGQGLEWMGWLNPNSGNSGYAQKFQGRVTMTADRSTSTAYMELSSLRSEDTAVYYCAREVPETAAFEYWGQGTLVTVSS
VL: QSVLTQPPSVSGAPGQRVTISCTSSSSDIGAGLGVHWYQQLPGTAPKLLIEGYYNRPSGVPDRFSGSKSGTSASLTITGLLPEDEGDYYCQSYDGTLSALFGGGTKLTVLG
notes: full-length human IgG1, lambda
B2: 320-553 (antibody, human IgG1, name in Kabat numbering, V domains shown)
VH: QVQLVQSGAEVKKPGASVKVSCKASGYTFTSYDINWVRQAPGQGLEWMGWLNPNSGNKGYAQKFQGRVTMTADRSTSTAYMELSSLRSEDTAVYYCAREVPETAAFEYWGQGTLVTVSS
VL: QSVLTQPPSVSGAPGQRVTISCTSSSSDIGAGLGVHWYQQLPGTAPKLLIEGYYNRPSGVPDRFSGSKSGTSASLTITGLLPEDEGDYYCQSYDGTLSALFGGGTKLTVLG
notes: as for B1
B3: 320-568 (antibody, human IgG1, name in Kabat numbering, V domains shown)
VH: QVQLVQSGAEVKKPGASVKVSCKASGYTFTSYDINWVRQAPGQGLEWMGWLNPNSGNTGQAQKFQGRVTMTADRSTSTAYMELSSLRSEDTAVYYCAREVPETAAFEYWGQGTLVTVSS
VL: QSVLTQPPSVSGAPGQRVTISCTSSSSDIGAGLGVHWYQQLPGTAPKLLIEGYYNRPSGVPDRFSGSKSGTSASLTITGLLPEDEGDYYCQSYDGTLSALFGGGTKLTVLG
notes: as for B1
B4: 320-564 (antibody, human IgG1, name in Kabat numbering, V domains shown)
VH: QVQLVQSGAEVKKPGASVKVSCKASGYTFTSYDINWVRQAPGQGLEWMGWLNPNSGNTWYAQKFQGRVTMTADRSTSTAYMELSSLRSEDTAVYYCAREVPETAAFEYWGQGTLVTVSS
VL: QSVLTQPPSVSGAPGQRVTISCTSSSSDIGAGLGVHWYQQLPGTAPKLLIEGYYNRPSGVPDRFSGSKSGTSASLTITGLLPEDEGDYYCQSYDGTLSALFGGGTKLTVLG
notes: as for B1
B5: 320-570 (antibody, human IgG1, name in Kabat numbering, V domains shown)
VH: QVQLVQSGAEVKKPGASVKVSCKASGYTFTSYDINWVRQAPGQGLEWMGWLNPNSGNTGHAQKFQGRVTMTADRSTSTAYMELSSLRSEDTAVYYCAREVPETAAFEYWGQGTLVTVSS
VL: QSVLTQPPSVSGAPGQRVTISCTSSSSDIGAGLGVHWYQQLPGTAPKLLIEGYYNRPSGVPDRFSGSKSGTSASLTITGLLPEDEGDYYCQSYDGTLSALFGGGTKLTVLG
notes: as for B1
B6: 320-559 (antibody, human IgG1, name in Kabat numbering, V domains shown)
VH: QVQLVQSGAEVKKPGASVKVSCKASGYTFTSYDINWVRQAPGQGLEWMGWLNPNSGNTQYAQKFQGRVTMTADRSTSTAYMELSSLRSEDTAVYYCAREVPETAAFEYWGQGTLVTVSS
VL: QSVLTQPPSVSGAPGQRVTISCTSSSSDIGAGLGVHWYQQLPGTAPKLLIEGYYNRPSGVPDRFSGSKSGTSASLTITGLLPEDEGDYYCQSYDGTLSALFGGGTKLTVLG
notes: as for B1
B7: 320-556 (antibody, human IgG1, name in Kabat numbering, V domains shown)
VH: QVQLVQSGAEVKKPGASVKVSCKASGYTFTSYDINWVRQAPGQGLEWMGWLNPNSGNYGYAQKFQGRVTMTADRSTSTAYMELSSLRSEDTAVYYCAREVPETAAFEYWGQGTLVTVSS
VL: QSVLTQPPSVSGAPGQRVTISCTSSSSDIGAGLGVHWYQQLPGTAPKLLIEGYYNRPSGVPDRFSGSKSGTSASLTITGLLPEDEGDYYCQSYDGTLSALFGGGTKLTVLG
notes: as for B1
B8: 320-550 (antibody, human IgG1, name in Kabat numbering, V domains shown)
VH: QVQLVQSGAEVKKPGASVKVSCKASGYTFTSYDINWVRQAPGQGLEWMGWLNPNSGNQGYAQKFQGRVTMTADRSTSTAYMELSSLRSEDTAVYYCAREVPETAAFEYWGQGTLVTVSS
VL: QSVLTQPPSVSGAPGQRVTISCTSSSSDIGAGLGVHWYQQLPGTAPKLLIEGYYNRPSGVPDRFSGSKSGTSASLTITGLLPEDEGDYYCQSYDGTLSALFGGGTKLTVLG
notes: as for B1
B9: 320-561 (antibody, human IgG1, name in Kabat numbering, V domains shown)
VH: QVQLVQSGAEVKKPGASVKVSCKASGYTFTSYDINWVRQAPGQGLEWMGWLNPNSGNTHYAQKFQGRVTMTADRSTSTAYMELSSLRSEDTAVYYCAREVPETAAFEYWGQGTLVTVSS
VL: QSVLTQPPSVSGAPGQRVTISCTSSSSDIGAGLGVHWYQQLPGTAPKLLIEGYYNRPSGVPDRFSGSKSGTSASLTITGLLPEDEGDYYCQSYDGTLSALFGGGTKLTVLG
notes: as for B1
B10: 320-555 (antibody, human IgG1, name in Kabat numbering, V domains shown)
VH: QVQLVQSGAEVKKPGASVKVSCKASGYTFTSYDINWVRQAPGQGLEWMGWLNPNSGNWGYAQKFQGRVTMTADRSTSTAYMELSSLRSEDTAVYYCAREVPETAAFEYWGQGTLVTVSS
VL: QSVLTQPPSVSGAPGQRVTISCTSSSSDIGAGLGVHWYQQLPGTAPKLLIEGYYNRPSGVPDRFSGSKSGTSASLTITGLLPEDEGDYYCQSYDGTLSALFGGGTKLTVLG
notes: as for B1
B11: 320-557 (antibody, human IgG1, name in Kabat numbering, V domains shown)
VH: QVQLVQSGAEVKKPGASVKVSCKASGYTFTSYDINWVRQAPGQGLEWMGWLNPNSGNTAYAQKFQGRVTMTADRSTSTAYMELSSLRSEDTAVYYCAREVPETAAFEYWGQGTLVTVSS
VL: QSVLTQPPSVSGAPGQRVTISCTSSSSDIGAGLGVHWYQQLPGTAPKLLIEGYYNRPSGVPDRFSGSKSGTSASLTITGLLPEDEGDYYCQSYDGTLSALFGGGTKLTVLG
notes: as for B1
B12: 320-552 (antibody, human IgG1, name in Kabat numbering, V domains shown)
VH: QVQLVQSGAEVKKPGASVKVSCKASGYTFTSYDINWVRQAPGQGLEWMGWLNPNSGNHGYAQKFQGRVTMTADRSTSTAYMELSSLRSEDTAVYYCAREVPETAAFEYWGQGTLVTVSS
VL: QSVLTQPPSVSGAPGQRVTISCTSSSSDIGAGLGVHWYQQLPGTAPKLLIEGYYNRPSGVPDRFSGSKSGTSASLTITGLLPEDEGDYYCQSYDGTLSALFGGGTKLTVLG
notes: as for B1
B13: 320-565 (antibody, human IgG1, name in Kabat numbering, V domains shown)
VH: QVQLVQSGAEVKKPGASVKVSCKASGYTFTSYDINWVRQAPGQGLEWMGWLNPNSGNTYYAQKFQGRVTMTADRSTSTAYMELSSLRSEDTAVYYCAREVPETAAFEYWGQGTLVTVSS
VL: QSVLTQPPSVSGAPGQRVTISCTSSSSDIGAGLGVHWYQQLPGTAPKLLIEGYYNRPSGVPDRFSGSKSGTSASLTITGLLPEDEGDYYCQSYDGTLSALFGGGTKLTVLG
notes: as for B1
B14: 320-569 (antibody, human IgG1, name in Kabat numbering, V domains shown)
VH: QVQLVQSGAEVKKPGASVKVSCKASGYTFTSYDINWVRQAPGQGLEWMGWLNPNSGNTGDAQKFQGRVTMTADRSTSTAYMELSSLRSEDTAVYYCAREVPETAAFEYWGQGTLVTVSS
VL: QSVLTQPPSVSGAPGQRVTISCTSSSSDIGAGLGVHWYQQLPGTAPKLLIEGYYNRPSGVPDRFSGSKSGTSASLTITGLLPEDEGDYYCQSYDGTLSALFGGGTKLTVLG
notes: as for B1
B15: 320-566 (antibody, human IgG1, name in Kabat numbering, V domains shown)
VH: QVQLVQSGAEVKKPGASVKVSCKASGYTFTSYDINWVRQAPGQGLEWMGWLNPNSGNTGAAQKFQGRVTMTADRSTSTAYMELSSLRSEDTAVYYCAREVPETAAFEYWGQGTLVTVSS
VL: QSVLTQPPSVSGAPGQRVTISCTSSSSDIGAGLGVHWYQQLPGTAPKLLIEGYYNRPSGVPDRFSGSKSGTSASLTITGLLPEDEGDYYCQSYDGTLSALFGGGTKLTVLG
notes: as for B1
B16: 320-554 (antibody, human IgG1, name in Kabat numbering, V domains shown)
VH: QVQLVQSGAEVKKPGASVKVSCKASGYTFTSYDINWVRQAPGQGLEWMGWLNPNSGNLGYAQKFQGRVTMTADRSTSTAYMELSSLRSEDTAVYYCAREVPETAAFEYWGQGTLVTVSS
VL: QSVLTQPPSVSGAPGQRVTISCTSSSSDIGAGLGVHWYQQLPGTAPKLLIEGYYNRPSGVPDRFSGSKSGTSASLTITGLLPEDEGDYYCQSYDGTLSALFGGGTKLTVLG
notes: as for B1
B17: 320-551 (antibody, human IgG1, name in Kabat numbering, V domains shown)
VH: QVQLVQSGAEVKKPGASVKVSCKASGYTFTSYDINWVRQAPGQGLEWMGWLNPNSGNDGYAQKFQGRVTMTADRSTSTAYMELSSLRSEDTAVYYCAREVPETAAFEYWGQGTLVTVSS
VL: QSVLTQPPSVSGAPGQRVTISCTSSSSDIGAGLGVHWYQQLPGTAPKLLIEGYYNRPSGVPDRFSGSKSGTSASLTITGLLPEDEGDYYCQSYDGTLSALFGGGTKLTVLG
notes: as for B1
B18: 320-560 (antibody, human IgG1, name in Kabat numbering, V domains shown)
VH: QVQLVQSGAEVKKPGASVKVSCKASGYTFTSYDINWVRQAPGQGLEWMGWLNPNSGNTDYAQKFQGRVTMTADRSTSTAYMELSSLRSEDTAVYYCAREVPETAAFEYWGQGTLVTVSS
VL: QSVLTQPPSVSGAPGQRVTISCTSSSSDIGAGLGVHWYQQLPGTAPKLLIEGYYNRPSGVPDRFSGSKSGTSASLTITGLLPEDEGDYYCQSYDGTLSALFGGGTKLTVLG
notes: as for B1
B19: 320-567 (antibody, human IgG1, name in Kabat numbering, V domains shown)
VH: QVQLVQSGAEVKKPGASVKVSCKASGYTFTSYDINWVRQAPGQGLEWMGWLNPNSGNTGSAQKFQGRVTMTADRSTSTAYMELSSLRSEDTAVYYCAREVPETAAFEYWGQGTLVTVSS
VL: QSVLTQPPSVSGAPGQRVTISCTSSSSDIGAGLGVHWYQQLPGTAPKLLIEGYYNRPSGVPDRFSGSKSGTSASLTITGLLPEDEGDYYCQSYDGTLSALFGGGTKLTVLG
notes: as for B1

Experiments:
[1] = target: T1, human TL1A extracellular domain with …; test: SPR Run 7, antibody on Protein A, TL1A 5 ug/mL, timepoint 44
Outline: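 Biacore T200 SPR with antibody (supernatant or Protein A-purified) captured on Protein A amine-coupled to a CM5 chip; capture level recorded as response change at end of capture.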

[2] = target: T1, human TL1A extracellular domain with …; test: SPR Run 7, antibody on Protein A, TL1A 5 ug/mL, timepoint 220
Outline: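 The capture level was the response change at the end of loading, which varied by run. Antigen response was read before dissociation ended, double-referenced against a reference flow cell and a buffer blank.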

| TL1A Binding Level (Early) [1] | TL1A Binding Level (Late) [2] | Binder |
| --- | --- | --- |
| 50 RU | 45 RU | B1 |
| 84 RU | 78 RU | B2 |
| 115 RU | 107 RU | B3 |
| 72 RU | 67 RU | B4 |
| 79 RU | 72 RU | B5 |
| 9 RU | 5 RU | B6 |
| 100 RU | 90 RU | B7 |
| 112 RU | 103 RU | B8 |
| 14 RU | 6 RU | B9 |
| 62 RU | 30 RU | B10 |
| 26 RU | 6 RU | B11 |
| 104 RU | 97 RU | B12 |
| 43 RU | 12 RU | B13 |
| 79 RU | 73 RU | B14 |
| 120 RU | 110 RU | B15 |
| 66 RU | 51 RU | B16 |
| 44 RU | 36 RU | B17 |
| 36 RU | 9 RU | B18 |
| 96 RU | 86 RU | B19 |
